The series has as its target ASFV p30 (African swine fever virus, UniProt P34204 1-204). Description: enzyme-linked aptamer adsorbed assay; […] (binding buffer not stated); […], room temperature, 30 min; […]. The following applies: protein: commercial, label: 5'-biotin.
Setting [1] is: hairpin (M-fold predicted for parent).

Sequence of ASFV p30 (P34204 whole entry): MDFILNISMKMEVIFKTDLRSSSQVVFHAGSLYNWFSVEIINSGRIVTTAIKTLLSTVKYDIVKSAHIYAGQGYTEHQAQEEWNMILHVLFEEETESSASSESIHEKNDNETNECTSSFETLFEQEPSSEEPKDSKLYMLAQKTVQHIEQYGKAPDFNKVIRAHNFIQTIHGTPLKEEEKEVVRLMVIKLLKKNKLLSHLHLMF

On to ATTGGCACTCCACGCATCTATGCGTGCTACCGTGAA (ssDNA) [AptNC], for which the binding result is “no binding”.

B1: Atc-28 (ssDNA)
DNA: CATAGGGTCGACGGTGCCGTCCGTGTTCACACTCCCATTTGGGTGGCCTATG
For B1, the Kd under setting [1] was 0.153 ± 0.0003 nM.
Regarding GGGTCGACGGTGCCGTCCGTGTTCACACTCCCATTTGGGTGGCC (ssDNA) [Atc-34], the dissociation constant Kd under setting [1] is 0.266 ± 0.068 nM.

B2: Atc-20 (ssDNA)
DNA: CACGCATAGGGTCGACGGTGCCGTCCGTGTTCACACTCCCATTTGGGTGGCCTATGCGTG
B2: under setting [1], the dissociation constant (Kd) is 0.14 ± 0.01 nM.

B3: Apt A4 (biotin) (ssDNA)
DNA: ATTGGCACTCCACGCATAGGGTCGACGGTGCCGTCCGTGTTCACACTCCCATTTGGGTGGCCTATGCGTGCTACCGTGAA
For the molecule B3, the equilibrium dissociation constant (Kd) (hairpin (M-fold predicted)) was 0.17 ± 0.0062 nM.

These data come from paper PMC10876938, “In vitro SELEX and application of an African swine fever virus (ASFV) p30 protein specific aptamer”.
